Laboratory results: patent publication US20240301052A1 (LANOVA MEDICINES DEVELOPMENT, published 2024)
Changes are numbered by the printed parent chain.

T1: human SLC34A2 (human, UniProt O95436 1-690)
T1 construct: whole, on cells; also called human solute carrier 34 A2; NaPi2b
T1 sequence (looked up): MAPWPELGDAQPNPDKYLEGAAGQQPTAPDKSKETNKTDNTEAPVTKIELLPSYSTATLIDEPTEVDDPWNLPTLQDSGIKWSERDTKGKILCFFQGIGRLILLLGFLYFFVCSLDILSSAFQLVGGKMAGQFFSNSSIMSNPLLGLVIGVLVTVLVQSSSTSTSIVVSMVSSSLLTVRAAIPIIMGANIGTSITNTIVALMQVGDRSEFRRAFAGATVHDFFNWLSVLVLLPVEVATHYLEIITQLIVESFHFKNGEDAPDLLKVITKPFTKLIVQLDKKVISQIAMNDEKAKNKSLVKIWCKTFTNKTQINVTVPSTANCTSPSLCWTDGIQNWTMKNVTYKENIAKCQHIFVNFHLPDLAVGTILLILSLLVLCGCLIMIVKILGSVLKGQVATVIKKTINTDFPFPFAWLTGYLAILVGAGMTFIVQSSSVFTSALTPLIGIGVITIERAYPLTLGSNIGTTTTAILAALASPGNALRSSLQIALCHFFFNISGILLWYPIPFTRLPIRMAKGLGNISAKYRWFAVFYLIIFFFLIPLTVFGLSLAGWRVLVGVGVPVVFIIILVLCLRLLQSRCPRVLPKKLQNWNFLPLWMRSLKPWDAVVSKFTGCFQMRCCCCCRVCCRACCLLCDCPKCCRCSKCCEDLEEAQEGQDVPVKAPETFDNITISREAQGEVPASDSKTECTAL

T2: Rhesus SLC34A2 (Rhesus, UniProt F7HDA3 1-690)
T2 construct: whole, on cells
T2 sequence: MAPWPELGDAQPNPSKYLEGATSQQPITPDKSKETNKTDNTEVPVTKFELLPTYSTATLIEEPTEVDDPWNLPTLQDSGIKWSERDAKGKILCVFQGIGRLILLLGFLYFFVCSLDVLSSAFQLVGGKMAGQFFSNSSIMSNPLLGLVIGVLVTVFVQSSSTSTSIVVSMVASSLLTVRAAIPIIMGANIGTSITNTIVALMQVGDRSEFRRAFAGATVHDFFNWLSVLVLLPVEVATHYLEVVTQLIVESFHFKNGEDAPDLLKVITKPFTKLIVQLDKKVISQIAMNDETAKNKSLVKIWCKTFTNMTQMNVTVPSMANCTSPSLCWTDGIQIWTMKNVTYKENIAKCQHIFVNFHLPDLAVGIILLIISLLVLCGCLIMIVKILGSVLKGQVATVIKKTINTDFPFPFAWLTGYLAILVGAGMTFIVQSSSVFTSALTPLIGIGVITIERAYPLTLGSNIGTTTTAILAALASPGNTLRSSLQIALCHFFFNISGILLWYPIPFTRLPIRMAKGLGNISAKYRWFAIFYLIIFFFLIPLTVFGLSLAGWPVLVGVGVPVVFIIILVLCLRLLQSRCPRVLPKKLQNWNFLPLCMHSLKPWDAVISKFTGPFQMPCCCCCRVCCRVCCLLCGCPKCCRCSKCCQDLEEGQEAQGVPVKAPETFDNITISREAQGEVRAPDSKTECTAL

T3: Cynomolgus SLC34A2 (Cynomolgus, UniProt A0A2K5UHY1 1-690)
T3 construct: whole, on cells; also called Cyno SLC34A2
T3 sequence: T2 sequence with P325H, I530V

B1: xi16E5D10 hIgG1 (antibody, V domains shown)
VH: QVQLQQPGAELVKPGASVMMSCKASGYTFSNHNLHWLKKTPGQGLDWIGAIYPGNGDTSYNQKFKGRATLTVDKSSNTAYMQFSSLTSEDSAVFYCARGKYGNGAMDYWGQGTAVTVSS
VL: DIVMTQSHKFMSTSVGDRVSITCRASQDVGTAVVWYQQKLGQSPKLLFDWASSRHTGVPDRFTGSGSGTDFTLTITDVQSEDLADYFCQQYSRQPLTFGAGTKLELK
notes: chimeric, hIgG1
B2: xi18G1H4 hIgG1 (antibody, V domains shown)
VH: QVQLQQPGAELVKPGASVRMSCKASAYTFTTYNLHWVKQTPGQGLEWIGAISPGNGVTSYNQKFRGKATLTADKSSSTAYMQLSSLTSEDSAVYYCARGYGYSVGAMDYWGQGTSVTVSS
VL: DIQMTQTTSSLSASLGDRVNISCSASQGIGNFLNWYQQKPDGTVKLLIYYTSSLHSGVPPRFSGSGSGTDYSLTISNLEPEDIATYYCQQYHKLPLTFGAGTKLELK
notes: chimeric, hIgG1
B3: xi28G3C6B9 hIgG1 (antibody, V domains shown)
VH: QVQLQQPGAEVVKPGASVKMSCKASGYTFTSYIIHWVKQAPGQGLEWIGAIYPGNGDTSYSQRFKGKAKLTADKSSSTAYMQLNSLTSEDSVVYYCARGNNYGSPAWFGYWGQGTLVTVSA
VL: DIVLTQSPVTLSVTPGDRVSLSCRASQSIGNFLYWYQQKSHESPRLLIKYASQSMSGIPSRFSGSGSGTDFTLSISRVETEDFGMYFCQQSNSWPVTFGAGTKLELK
notes: chimeric, hIgG1
B4: xi84F2D10 hIgG1 (antibody, V domains shown)
VH: QVQLQQPGAVLVKPGASVKMSCKASGYTFTSYNLHWVKQTPGQGLEWIGAIYPGNGDTSYIQKFKGKATLTADKSSSTAYMQLSSLTSEDSAVYYCARGKYGNYEGFAYWGQGTLVTVSA
VL: DILLTQSPAILSVSPGERVSISCRASQSIGTSIYWYQQRRNGSPRLLIKFASESISGIPSRFSGSGSGTDFTLSINSVESEDIADYYCQQNNRWPFTFGSGTKLEIK
notes: chimeric, hIgG1

Molecular target: T1, human SLC34A2
Test: FACS, RMG-1 cells
Protocol: Based on the foregoing cell-based binding results, some of the chimeric antibodies were selected for further cell based binding on human SLC34A2 expressing cells using flow cytometry. RMG-1 cells were incubated with the selected chimeric antibodies (from 200 nM, 4 folds dilution, 8 points). After incubation at 4° C. for 60 minutes, the cells were washed with FACS buffer twice, then stained with fluorescent conjugated secondary antibody at 4° C. for 30 minutes. Afterwards the cells were washed twice and analyzed by flow cytometry.

Row | Binder | EC50 [nM] | Top (MFI)
1 | B1 | 3.76 | 9500
2 | B2 | 7.91 | 9800
3 | B3 | 4.73 | 9420
4 | B4 | 4.33 | 8600

Molecular target: T1, human SLC34A2
Test: FACS, OVCAR3 cells
Protocol: In this example, cell based binding of chimeric antibodies (hIgG1) prepared from the murine antibodies on human SLC34A2 expressing cells were assessed using flow cytometry.
(§1) Briefly, OVCAR3 cells or HEK293 cells expressing human SLC34A2 were incubated with chimeric antibodies (from 200 nM, 4 folds dilution, 8 points). After incubation at 4° C. for 60 minutes, the cells were washed with FACS buffer twice, then stained with fluorescent conjugated secondary antibody at 4° C. for 30 minutes. After that the cells were washed twice and analyzed by flow cytometry.

Row | Binder | EC50 [nM] | Top (MFI)
5 | B1 | 4.66 | 27600
6 | B2 | 2.75 | 42500
7 | B3 | 4.27 | 43000
8 | B4 | 3.84 | 40500

Molecular target: T1, human SLC34A2
Test: cell-based or functional assay

Row | Binder | ADCC reporter EC50 [nM] | ADCC reporter Top (MFI)
9 | B1 | 2.1 | 238000
10 | B2 | 2.2 | 228000
11 | B3 | 6.4 | 569000
12 | B4 | 2.5 | 409000

Molecular target: T1, human SLC34A2
Test: cell-based or functional assay
Remark: another data set of the same source

Row | Binder | cytotoxicity EC50 [nM] | cytotoxicity Inhibition % [%]
13 | B1 | 0.78 | 93.1
14 | B2 | 0.36 | 82.7
15 | B3 | 0.36 | 86.4
16 | B4 | 0.61 | 102

Molecular target: T1, human SLC34A2
Test: FACS, HEK293/human SLC34A2 cells
Protocol: as §1

Row | Binder | EC50 [nM] | Top (MFI)
17 | B1 | 2.29 | 47500
18 | B2 | 0.86 | 106000
19 | B3 | 1.88 | 107000
20 | B4 | 1.37 | 109000

Molecular target: T2, Rhesus SLC34A2
Test: FACS, HEK293/Rhesus SLC34A2 cells
Protocol: Briefly, the Rhesus SLC34A2 expressing HEK293 engineering cells (HEK293/Rhesus_SLC34A2) were incubated with chimeric Abs (from 200 nM, 4 folds dilution, 8 points). After incubation at 4° C. for 60 minutes, the cells were washed with FACS buffer twice, then stained with fluorescent conjugated secondary antibody at 4° C. for 30 minutes. After that the cells were washed twice and analyzed by flow cytometry.

Row | Binder | EC50 [nM] | Top (MFI)
21 | B1 | 2.72 | 14800
22 | B2 | 2.9 | 14300
23 | B3 | 3.19 | 13400
24 | B4 | 46 | 8840

Molecular target: T3, Cynomolgus SLC34A2
Test: FACS, cells expressing Cynomolgus SLC34A2

Row | Binder | EC50 [nM] | Top (MFI)
25 | B1 | 3.79 | 3730
26 | B2 | 4.93 | 4090
27 | B3 | 2.81 | 3770
28 | B4 | 68.5 | 1280
